# US20130005646A1 (Novo Nordisk, published 2013)
# Starred links: 1 amine or outer side, 2 acyl side, 3 side chain; linkers in the order of their positions; H or OH if unused. Positions of bridges follow the written chain, without caps; N, C: chain ends. Groups on a side chain read outwards from the residue. No end group written: not given here. *: point of attachment. X1 = (S)‑4‑Carboxy‑4‑(19-carboxynonadecanoylamino)butyryl, O=C(O)CCCCCCCCCCCCCCCCCCC(=O)N[C@@H](CCC(=O)*)C(=O)O; C20 diacid = O=C(O)CCCCCCCCCCCCCCCCCCC(=O)*; C18 diacid = O=C(O)CCCCCCCCCCCCCCCCC(=O)*; γGlu = O=C(O)[C@H](CCC(=O)[*:2])N[*:1]; AEEA = NCCOCCOCC(=O)O
# T1: human amylin 3(a) receptor (human calcitonin receptor + RAMP-3) (human, UniProt P30988 25-474; O60896 24-148)
# T1 sequence (looked up) 1: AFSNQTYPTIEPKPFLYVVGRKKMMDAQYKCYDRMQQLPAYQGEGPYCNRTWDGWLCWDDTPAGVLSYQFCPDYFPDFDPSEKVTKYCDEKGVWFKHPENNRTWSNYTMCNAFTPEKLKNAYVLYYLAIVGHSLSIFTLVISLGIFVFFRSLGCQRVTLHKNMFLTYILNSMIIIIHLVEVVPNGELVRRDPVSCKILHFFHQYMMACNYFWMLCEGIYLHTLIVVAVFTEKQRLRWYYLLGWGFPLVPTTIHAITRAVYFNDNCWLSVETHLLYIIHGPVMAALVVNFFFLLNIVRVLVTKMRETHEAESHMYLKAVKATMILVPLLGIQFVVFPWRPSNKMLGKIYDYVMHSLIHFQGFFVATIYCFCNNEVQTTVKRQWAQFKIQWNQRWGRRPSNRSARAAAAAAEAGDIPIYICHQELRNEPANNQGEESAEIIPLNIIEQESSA
# T1 sequence (looked up) 2: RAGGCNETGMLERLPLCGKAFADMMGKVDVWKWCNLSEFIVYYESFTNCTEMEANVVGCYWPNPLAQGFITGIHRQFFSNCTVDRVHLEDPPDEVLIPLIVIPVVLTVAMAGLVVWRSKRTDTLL
# T2: human calcitonin (a) receptor (human, UniProt P30988 25-474)
# T2 sequence (looked up): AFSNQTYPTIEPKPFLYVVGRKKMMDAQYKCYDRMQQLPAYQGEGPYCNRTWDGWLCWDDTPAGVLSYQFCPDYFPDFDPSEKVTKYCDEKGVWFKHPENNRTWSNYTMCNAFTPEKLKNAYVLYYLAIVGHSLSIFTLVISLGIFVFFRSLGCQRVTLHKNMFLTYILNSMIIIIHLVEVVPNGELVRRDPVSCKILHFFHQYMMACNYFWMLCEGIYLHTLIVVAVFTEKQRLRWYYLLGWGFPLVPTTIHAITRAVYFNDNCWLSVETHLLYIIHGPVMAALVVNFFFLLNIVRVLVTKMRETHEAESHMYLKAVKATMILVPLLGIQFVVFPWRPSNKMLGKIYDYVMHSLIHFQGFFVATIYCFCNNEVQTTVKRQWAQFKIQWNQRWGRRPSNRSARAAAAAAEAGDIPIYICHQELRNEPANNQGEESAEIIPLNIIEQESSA
# Tests used:
# [1] = target: T1, human amylin 3(a) receptor (human …); assay: cell-based or functional assay
# [2] = target: T2, human calcitonin (a) receptor; assay: cell-based or functional assay
Binder,Amylin receptor human EC50 [1],CTa receptor human EC50 [2]
"{C20 diacid-γGlu}-SKCNTATCATQRLAEFLHHSSNNFGPILPPTNVGSHTY-NH2 (disulfide 3-8; SMILES CC[C@H](C)[C@H](NC(=O)[C@@H]1CCCN1C(=O)CNC(=O)[C@H](Cc1ccccc1)NC(=O)[C@H](CC(N)=O)NC(=O)[C@H](CC(N)=O)NC(=O)[C@H](CO)NC(=O)[C@H](CO)NC(=O)[C@H](Cc1c[nH]cn1)NC(=O)[C@H](Cc1c[nH]cn1)NC(=O)[C@H](CC(C)C)NC(=O)[C@H](Cc1ccccc1)NC(=O)[C@H](CCC(=O)O)NC(=O)[C@H](C)NC(=O)[C@H](CC(C)C)NC(=O)[C@H](CCCNC(=N)N)NC(=O)[C@H](CCC(N)=O)NC(=O)[C@@H](NC(=O)[C@H](C)NC(=O)[C@@H]1CSSC[C@H](NC(=O)[C@H](CCCCN)NC(=O)[C@H](CO)NC(=O)CC[C@H](NC(=O)CCCCCCCCCCCCCCCCCCC(=O)O)C(=O)O)C(=O)N[C@@H](CC(N)=O)C(=O)N[C@@H]([C@@H](C)O)C(=O)N[C@@H](C)C(=O)N[C@@H]([C@@H](C)O)C(=O)N1)[C@@H](C)O)C(=O)N[C@@H](CC(C)C)C(=O)N1CCC[C@H]1C(=O)N1CCC[C@H]1C(=O)N[C@H](C(=O)N[C@@H](CC(N)=O)C(=O)N[C@H](C(=O)NCC(=O)N[C@@H](CO)C(=O)N[C@@H](Cc1c[nH]cn1)C(=O)N[C@H](C(=O)N[C@@H](Cc1ccc(O)cc1)C(N)=O)[C@@H](C)O)C(C)C)[C@@H](C)O) [N-alpha-[(S)-4-Carboxy-4-(19-carboxynonadecanoylamino)butyryl]-Ser-[Glu14,His17,His35]-pramlintide]",132 pM,153 pM
KCNTATCATQRLAEFLK([AEEA-AEEA-γGlu-C18 diacid])HSSSNFGPILPPTNVGSETY-NH2 (disulfide 2-7; N-terminus assumed; SMILES CC[C@H](C)[C@H](NC(=O)[C@@H]1CCCN1C(=O)CNC(=O)[C@H](Cc1ccccc1)NC(=O)[C@H](CC(N)=O)NC(=O)[C@H](CO)NC(=O)[C@H](CO)NC(=O)[C@H](CO)NC(=O)[C@H](Cc1c[nH]cn1)NC(=O)[C@H](CCCCNC(=O)COCCOCCNC(=O)COCCOCCNC(=O)CC[C@H](NC(=O)CCCCCCCCCCCCCCCCC(=O)O)C(=O)O)NC(=O)[C@H](CC(C)C)NC(=O)[C@H](Cc1ccccc1)NC(=O)[C@H](CCC(=O)O)NC(=O)[C@H](C)NC(=O)[C@H](CC(C)C)NC(=O)[C@H](CCCNC(=N)N)NC(=O)[C@H](CCC(N)=O)NC(=O)[C@@H](NC(=O)[C@H](C)NC(=O)[C@@H]1CSSC[C@H](NC(=O)[C@@H](N)CCCCN)C(=O)N[C@@H](CC(N)=O)C(=O)N[C@@H]([C@@H](C)O)C(=O)N[C@@H](C)C(=O)N[C@@H]([C@@H](C)O)C(=O)N1)[C@@H](C)O)C(=O)N[C@@H](CC(C)C)C(=O)N1CCC[C@H]1C(=O)N1CCC[C@H]1C(=O)N[C@H](C(=O)N[C@@H](CC(N)=O)C(=O)N[C@H](C(=O)NCC(=O)N[C@@H](CO)C(=O)N[C@@H](CCC(=O)O)C(=O)N[C@H](C(=O)N[C@@H](Cc1ccc(O)cc1)C(N)=O)[C@@H](C)O)C(C)C)[C@@H](C)O),1750 pM,8430 pM
"X1-GCNTATCATQRLAEFLHHSSNNFGPILPPTNVGSNTP-NH2 (disulfide 2-7; SMILES CC[C@H](C)[C@H](NC(=O)[C@@H]1CCCN1C(=O)CNC(=O)[C@H](Cc1ccccc1)NC(=O)[C@H](CC(N)=O)NC(=O)[C@H](CC(N)=O)NC(=O)[C@H](CO)NC(=O)[C@H](CO)NC(=O)[C@H](Cc1c[nH]cn1)NC(=O)[C@H](Cc1c[nH]cn1)NC(=O)[C@H](CC(C)C)NC(=O)[C@H](Cc1ccccc1)NC(=O)[C@H](CCC(=O)O)NC(=O)[C@H](C)NC(=O)[C@H](CC(C)C)NC(=O)[C@H](CCCNC(=N)N)NC(=O)[C@H](CCC(N)=O)NC(=O)[C@@H](NC(=O)[C@H](C)NC(=O)[C@@H]1CSSC[C@H](NC(=O)CNC(=O)CC[C@H](NC(=O)CCCCCCCCCCCCCCCCCCC(=O)O)C(=O)O)C(=O)N[C@@H](CC(N)=O)C(=O)N[C@@H]([C@@H](C)O)C(=O)N[C@@H](C)C(=O)N[C@@H]([C@@H](C)O)C(=O)N1)[C@@H](C)O)C(=O)N[C@@H](CC(C)C)C(=O)N1CCC[C@H]1C(=O)N1CCC[C@H]1C(=O)N[C@H](C(=O)N[C@@H](CC(N)=O)C(=O)N[C@H](C(=O)NCC(=O)N[C@@H](CO)C(=O)N[C@@H](CC(N)=O)C(=O)N[C@H](C(=O)N1CCC[C@H]1C(N)=O)[C@@H](C)O)C(C)C)[C@@H](C)O) [N-alpha-[(S)-4-Carboxy-4-(19-carboxynonadecanoylamino)butyryl]-[Gly1,Glu14,His17,Pro37]-pramlintide]",54 pM,52 pM
"{C20 diacid-γGlu}-KCNTATCATQRLAEFLVHSSNNFGPILPPTNVGSNTP-NH2 (disulfide 2-7; SMILES CC[C@H](C)[C@H](NC(=O)[C@@H]1CCCN1C(=O)CNC(=O)[C@H](Cc1ccccc1)NC(=O)[C@H](CC(N)=O)NC(=O)[C@H](CC(N)=O)NC(=O)[C@H](CO)NC(=O)[C@H](CO)NC(=O)[C@H](Cc1c[nH]cn1)NC(=O)[C@@H](NC(=O)[C@H](CC(C)C)NC(=O)[C@H](Cc1ccccc1)NC(=O)[C@H](CCC(=O)O)NC(=O)[C@H](C)NC(=O)[C@H](CC(C)C)NC(=O)[C@H](CCCNC(=N)N)NC(=O)[C@H](CCC(N)=O)NC(=O)[C@@H](NC(=O)[C@H](C)NC(=O)[C@@H]1CSSC[C@H](NC(=O)[C@H](CCCCN)NC(=O)CC[C@H](NC(=O)CCCCCCCCCCCCCCCCCCC(=O)O)C(=O)O)C(=O)N[C@@H](CC(N)=O)C(=O)N[C@@H]([C@@H](C)O)C(=O)N[C@@H](C)C(=O)N[C@@H]([C@@H](C)O)C(=O)N1)[C@@H](C)O)C(C)C)C(=O)N[C@@H](CC(C)C)C(=O)N1CCC[C@H]1C(=O)N1CCC[C@H]1C(=O)N[C@H](C(=O)N[C@@H](CC(N)=O)C(=O)N[C@H](C(=O)NCC(=O)N[C@@H](CO)C(=O)N[C@@H](CC(N)=O)C(=O)N[C@H](C(=O)N1CCC[C@H]1C(N)=O)[C@@H](C)O)C(C)C)[C@@H](C)O) [N-alpha-[(S)-4-Carboxy-4-(19-carboxynonadecanoylamino)butyryl]-[Glu14,Pro37]-pramlintide]",55 pM,52.5 pM
"{C20 diacid-γGlu}-GKCNTATCATQRLAEFLHHSSNNFGPILPPTNVGSHTY-NH2 (disulfide 3-8; SMILES CC[C@H](C)[C@H](NC(=O)[C@@H]1CCCN1C(=O)CNC(=O)[C@H](Cc1ccccc1)NC(=O)[C@H](CC(N)=O)NC(=O)[C@H](CC(N)=O)NC(=O)[C@H](CO)NC(=O)[C@H](CO)NC(=O)[C@H](Cc1c[nH]cn1)NC(=O)[C@H](Cc1c[nH]cn1)NC(=O)[C@H](CC(C)C)NC(=O)[C@H](Cc1ccccc1)NC(=O)[C@H](CCC(=O)O)NC(=O)[C@H](C)NC(=O)[C@H](CC(C)C)NC(=O)[C@H](CCCNC(=N)N)NC(=O)[C@H](CCC(N)=O)NC(=O)[C@@H](NC(=O)[C@H](C)NC(=O)[C@@H]1CSSC[C@H](NC(=O)[C@H](CCCCN)NC(=O)CNC(=O)CC[C@H](NC(=O)CCCCCCCCCCCCCCCCCCC(=O)O)C(=O)O)C(=O)N[C@@H](CC(N)=O)C(=O)N[C@@H]([C@@H](C)O)C(=O)N[C@@H](C)C(=O)N[C@@H]([C@@H](C)O)C(=O)N1)[C@@H](C)O)C(=O)N[C@@H](CC(C)C)C(=O)N1CCC[C@H]1C(=O)N1CCC[C@H]1C(=O)N[C@H](C(=O)N[C@@H](CC(N)=O)C(=O)N[C@H](C(=O)NCC(=O)N[C@@H](CO)C(=O)N[C@@H](Cc1c[nH]cn1)C(=O)N[C@H](C(=O)N[C@@H](Cc1ccc(O)cc1)C(N)=O)[C@@H](C)O)C(C)C)[C@@H](C)O) [N-alpha-[(S)-4-Carboxy-4-(19-carboxynonadecanoylamino)butyryl]-Gly-[Glu14,His17,His35]-pramlintide]",95.5 pM,70.5 pM
{C18 diacid-γGlu-AEEA-AEEA}-ECNTATCATQRLAEFLHHSSNNFGPILPPTNVGSNTP-NH2 (disulfide 2-7; SMILES CC[C@H](C)[C@H](NC(=O)[C@@H]1CCCN1C(=O)CNC(=O)[C@H](Cc1ccccc1)NC(=O)[C@H](CC(N)=O)NC(=O)[C@H](CC(N)=O)NC(=O)[C@H](CO)NC(=O)[C@H](CO)NC(=O)[C@H](Cc1c[nH]cn1)NC(=O)[C@H](Cc1c[nH]cn1)NC(=O)[C@H](CC(C)C)NC(=O)[C@H](Cc1ccccc1)NC(=O)[C@H](CCC(=O)O)NC(=O)[C@H](C)NC(=O)[C@H](CC(C)C)NC(=O)[C@H](CCCNC(=N)N)NC(=O)[C@H](CCC(N)=O)NC(=O)[C@@H](NC(=O)[C@H](C)NC(=O)[C@@H]1CSSC[C@H](NC(=O)[C@H](CCC(=O)O)NC(=O)COCCOCCNC(=O)COCCOCCNC(=O)CC[C@H](NC(=O)CCCCCCCCCCCCCCCCC(=O)O)C(=O)O)C(=O)N[C@@H](CC(N)=O)C(=O)N[C@@H]([C@@H](C)O)C(=O)N[C@@H](C)C(=O)N[C@@H]([C@@H](C)O)C(=O)N1)[C@@H](C)O)C(=O)N[C@@H](CC(C)C)C(=O)N1CCC[C@H]1C(=O)N1CCC[C@H]1C(=O)N[C@H](C(=O)N[C@@H](CC(N)=O)C(=O)N[C@H](C(=O)NCC(=O)N[C@@H](CO)C(=O)N[C@@H](CC(N)=O)C(=O)N[C@H](C(=O)N1CCC[C@H]1C(N)=O)[C@@H](C)O)C(C)C)[C@@H](C)O),108 pM,288 pM
